The pKd is the negative decadic logarithm of the Kd, by convention in mol/L.

pKd: −log10 of the molar value.

In the experiment the target is all other cases (NTSR1 nanodisc preparations other than WT in 100% POPC nanodiscs). The experiment can be described thus: radioligand binding.

“[3H]NTS ([3,11-tyrosyl-3,5-3H(N)]-neurotensin) (peptide)” had a pKd of 9.30.

These data come from publication PMC4512254.
